System: Escherichia coli TOP10
Assay: shrunken log2 fold change of peptide-encoding DNA abundance (4.5 h post-induction vs induction); higher = less antimicrobial activity (less host growth inhibition)
Conditions: time post-induction: 4.5 h; library: site-saturation at positions 5, 18, 19, 20
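Note: peptides expressed intracellularly from a pBAD plasmid library in pooled LB shake-flask culture, induced with 0.3% L-arabinose, DNA abundance read by NGS, three biological replicates, DESeq2 with apeglm shrinkage.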

Sequence | shrunken log2 fold change
RRIRRRPPRLPRPRPRPQKAPRP | 0.0122
RRIRTRPPRLPRPRPRPSEQPRP | 0.0636
RRIRDRPPRLPRPRPRPTCLPRP | 0.653
RRIRQRPPRLPRPRPRPNYEPRP | -0.123
RRIRSRPPRLPRPRPRPMCYPRP | -0.0971
RRIRNRPPRLPRPRPRPPQKPRP | 0.544
RRIRKRPPRLPRPRPRPLDVPRP | 0.0117
RRIRDRPPRLPRPRPRPGRFPRP | 0.315
RRIRQRPPRLPRPRPRPNAGPRP | 0.0853
RRIRDRPPRLPRPRPRPWMDPRP | -0.0272
RRIRARPPRLPRPRPRPERLPRP | 0.23
RRIRWRPPRLPRPRPRPQSHPRP | 0.105
RRIRWRPPRLPRPRPRPVMMPRP | -0.385
RRIRDRPPRLPRPRPRPWPNPRP | 0.0619
RRIRIRPPRLPRPRPRPWMVPRP | -0.619
RRIRNRPPRLPRPRPRPGFYPRP | 0.00223
RRIRRRPPRLPRPRPRPPVVPRP | 0.26
RRIRARPPRLPRPRPRPDKVPRP | 0.0597
RRIRYRPPRLPRPRPRPSMHPRP | -0.601
RRIRPRPPRLPRPRPRPLQKPRP | -0.0453

Sequence | shrunken log2 fold change
RRIRIRPPRLPRPRPRPRFQPRP | -0.0961
RRIRWRPPRLPRPRPRPVPYPRP | -0.638
RRIRRRPPRLPRPRPRPVAMPRP | 0.342
RRIRIRPPRLPRPRPRPSGQPRP | -0.0453
RRIRRRPPRLPRPRPRPHMVPRP | -0.355
RRIRSRPPRLPRPRPRPDAMPRP | 0.83
RRIRGRPPRLPRPRPRPHCSPRP | 0.144
RRIRVRPPRLPRPRPRPCNCPRP | -0.0105
RRIRSRPPRLPRPRPRPGAQPRP | 0.68
RRIRVRPPRLPRPRPRPINQPRP | -0.749
RRIRNRPPRLPRPRPRPRATPRP | 0.659
RRIRKRPPRLPRPRPRPCAAPRP | 0.421
RRIRLRPPRLPRPRPRPPDIPRP | -0.0356
RRIRKRPPRLPRPRPRPPDVPRP | -0.0127
RRIRKRPPRLPRPRPRPYLDPRP | -0.0998
RRIRWRPPRLPRPRPRPYQEPRP | -0.0609
RRIRKRPPRLPRPRPRPRLYPRP | 0.0187
RRIRCRPPRLPRPRPRPGLMPRP | -0.102
RRIRARPPRLPRPRPRPHIVPRP | -0.000968
RRIRFRPPRLPRPRPRPHQSPRP | -0.114

Sequence | shrunken log2 fold change
RRIRFRPPRLPRPRPRPKPSPRP | 0.462
RRIRNRPPRLPRPRPRPWFSPRP | -0.796
RRIRNRPPRLPRPRPRPQSRPRP | 0.181
RRIRVRPPRLPRPRPRPYPCPRP | 3.36e-05
RRIRYRPPRLPRPRPRPKGRPRP | -0.258
RRIRHRPPRLPRPRPRPFTNPRP | -0.0272
RRIRFRPPRLPRPRPRPKRDPRP | 0.362
RRIRTRPPRLPRPRPRPALNPRP | -0.0937
RRIRYRPPRLPRPRPRPHTFPRP | -0.14
RRIRCRPPRLPRPRPRPMDQPRP | 0.337
RRIRSRPPRLPRPRPRPYNFPRP | -0.36
RRIRVRPPRLPRPRPRPPIHPRP | 0.042
RRIRHRPPRLPRPRPRPGWKPRP | 0.0976
RRIRDRPPRLPRPRPRPKFEPRP | -0.0187
RRIRTRPPRLPRPRPRPQKYPRP | -0.263
RRIRIRPPRLPRPRPRPQKKPRP | -0.0235
RRIRERPPRLPRPRPRPFKVPRP | 0.14
RRIRSRPPRLPRPRPRPQESPRP | -0.0242
RRIRARPPRLPRPRPRPVSPPRP | 0.664
RRIRLRPPRLPRPRPRPTLYPRP | 2.28

— the supplement of paper PMC9112550, “Optimization of the antimicrobial peptide Bac7 by deep mutational scanning” (BMC Biology, 2022)
